± gives the standard deviation of the averaged measurements.
Test: total protein half-life in vivo (active degradation + dilution); higher = more stable protein
[1] = E. coli NCM3722 delta-clpP delta-lon delta-hslV, growth: N-lim chemostat, doubling time 6 h
[2] = E. coli NCM3722 delta-hslV, growth: N-lim chemostat, doubling time 6 h
[3] = E. coli NCM3722 delta-lon, growth: N-lim chemostat, doubling time 6 h
[4] = E. coli NCM3722 delta-smpB, growth: N-lim chemostat, doubling time 6 h
[5] = wild type E. coli NCM3722, growth: C-lim chemostat, doubling time 3 h
[6] = wild type E. coli NCM3722, growth: C-lim chemostat, doubling time 6 h
[7] = wild type E. coli NCM3722, growth: C-lim chemostat, doubling time 12 h
[8] = wild type E. coli NCM3722, growth: N-lim chemostat, doubling time 6 h
[9] = wild type E. coli NCM3722, growth: P-lim chemostat, doubling time 6 h
[10] = wild type E. coli NCM3722, growth: P-lim chemostat, doubling time 12 h
[11] = E. coli NCM3722 delta-clpP, growth: N-lim chemostat, doubling time 6 h
[12] = wild type E. coli NCM3722, growth: N-lim chemostat, doubling time 12 h

Sequence: MSEEKLGQHYLAALNEAFPGVVLDHAWQTKDQLTVTVKVNYLPEVVEFLYYKQGGWLSVLFGNDERKLNGHYAVYYVLSMEKGTKCWITVRVEVDANKPEYPSVTPRVPAAVWGEREVRDMYGLIPVGLPDERRLVLPDDWPDELYPLRKDSMDYRQRPAPTTDAETYEFINELGDKKNNVVPIGPLHVTSDEPGHFRLFVDGENIIDADYRLFYVHRGMEKLAETRMGYNEVTFLSDRVCGICGFAHSTAYTTSVENAMGIQVPERAQMIRAILLEVERLHSHLLNLGLACHFTGFDSGFMQFFRVRETSMKMAEILTGARKTYGLNLIGGIRRDLLKDDMIQTRQLAQQMRREVQELVDVLLSTPNMEQRTVGIGRLDPEIARDFSNVGPMVRASGHARDTRADHPFVGYGLLPMEVHSEQGCDVISRLKVRINEVYTALNMIDYGLDNLPGGPLMVEGFTYIPHRFALGFAEAPRGDDIHWSMTGDNQKLYRWRCRAATYANWPTLRYMLRGNTVSDAPLIIGSLDPCYSCTDRMTVVDVRKKKSKVVPYKELERYSIERKNSPLK
- total protein half-life in vivo [1]: 4.79 h
- total protein half-life in vivo [2]: 2.89 h
- total protein half-life in vivo [3]: 3.68 h
- total protein half-life in vivo [4]: 2.74 ± 0.029 h
- total protein half-life in vivo [5]: 2.46 h
- total protein half-life in vivo [6]: 5.18 h
- total protein half-life in vivo [7]: 11.2 ± 0.78 h
- total protein half-life in vivo [8]: 3.86 ± 1.7 h
- total protein half-life in vivo [9]: 5.02 h
- total protein half-life in vivo [10]: 8.26 ± 0.97 h

Sequence: MTEKKYIVALDQGTTSSRAVVMDHDANIISVSQREFEQIYPKPGWVEHDPMEIWATQSSTLVEVLAKADISSDQIAAIGITNQRETTIVWEKETGKPIYNAIVWQCRRTAEICEHLKRDGLEDYIRSNTGLVIDPYFSGTKVKWILDHVEGSRERARRGELLFGTVDTWLIWKMTQGRVHVTDYTNASRTMLFNIHTLDWDDKMLEVLDIPREMLPEVRRSSEVYGQTNIGGKGGTRIPISGIAGDQQAALFGQLCVKEGMAKNTYGTGCFMLMNTGEKAVKSENGLLTTIACGPTGEVNYALEGAVFMAGASIQWLRDEMKLINDAYDSEYFATKVQNTNGVYVVPAFTGLGAPYWDPYARGAIFGLTRGVNANHIIRATLESIAYQTRDVLEAMQADSGIRLHALRVDGGAVANNFLMQFQSDILGTRVERPEVREVTALGAAYLAGLAVGFWQNLDELQEKAVIEREFRPGIETTERNYRYAGWKKAVKRAMAWEEHDE [P0A6F3]
- total protein half-life in vivo [11]: 6.74 ± 0.14 h
- total protein half-life in vivo [2]: 6.32 ± 0.39 h
- total protein half-life in vivo [4]: 5.64 ± 0.067 h
- total protein half-life in vivo [5]: 3.28 ± 0.085 h
- total protein half-life in vivo [6]: 5.398 ± 0.033 h
- total protein half-life in vivo [7]: 9.61 ± 1.5 h
- total protein half-life in vivo [8]: 5.983 ± 0.059 h
- total protein half-life in vivo [12]: 12.7 ± 0.32 h
- total protein half-life in vivo [9]: 6.31 ± 0.66 h
- total protein half-life in vivo [10]: 13 ± 0.85 h

Sequence: MSKSHPRWRLAKKILTWLFFIAVIVLLVVYAKKVDWEEVWKVIRDYNRVALLSAVGLVVVSYLIYGCYDLLARFYCGHKLAKRQVMLVSFICYAFNLTLSTWVGGIGMRYRLYSRLGLPGSTITRIFSLSITTNWLGYILLAGIIFTAGVVELPDHWYVDQTTLRILGIGLLMIIAVYLWFCAFAKHRHMTIKGQKLVLPSWKFALAQMLISSVNWMVMGAIIWLLLGQSVNYFFVLGVLLVSSIAGVIVHIPAGIGVLEAVFIALLAGEHTSKGTIIAALLAYRVLYYFIPLLLALICYLLLESQAKKLRAKNEAAM
- total protein half-life in vivo [4]: 4.62 ± 0.87 h

Sequence: MITIPITLRMLIAKYLCLLKPFWLRKNNKTSVLLIIIILAMILGVVKIQVWLNDWNNDFFNALSQKETDKLWQLVLWFPALLGIFVLISVNKTWLIKLLTIRWREWLTDYYLNRWFADKNYYFTQIYGEHKNTDNPDQRIAEDILLLISKTLSLSFGFIQSLSMLITFTVILWESAGTLSFTVGGTEWNIQGYMVYTVVLIVIGGTLFTHKVGKRIRPLNVEKQRSEATFRTNLVQHNKQAELIALSNAESLQRQELSDNFHTIKENWHRLMNRQRWLDYWQNIYSRSLSVLPYFLLLPQFISGQINLGGLMKSRQAFMLVSNNLSWFIYKYDELAELAAVIDRLYEFHQLTEQRPTNKPKNCQHAVQVADASIRTPDNKIILENLNFHVSPGKWLLLKGYSGAGKTTLLKTLSHCWPWFKGDISSPADSWYVSQTPLIKTGLLKEIICKALPLPVDDKSLSEVLHQVGLGKLAARIHDHDRWGDILSSGEKQRIALARLILRRPKWIFLDETTSHLEEQEAIRLLRLVREKLPTSGVIMVTHQPGVWNLADDICDISAVL
- total protein half-life in vivo [5]: 3.2 ± 0.6 h
- total protein half-life in vivo [6]: 5.29 ± 0.53 h
- total protein half-life in vivo [7]: 11.5 ± 1.1 h

Sequence: MHSLQRKVLRTICPDQKGLIARITNICYKHELNIVQNNEFVDHRTGRFFMRTELEGIFNDSTLLADLDSALPEGSVRELNPAGRRRIVILVTKEAHCLGDLLMKANYGGLDVEIAAVIGNHDTLRSLVERFDIPFELVSHEGLTRNEHDQKMADAIDAYQPDYVVLAKYMRVLTPEFVARFPNKIINIHHSFLPAFIGARPYHQAYERGVKIIGATAHYVNDNLDEGPIIMQDVIHVDHTYTAEDMMRAGRDVEKNVLSRALYKVLAQRVFVYGNRTIIL
- total protein half-life in vivo [1]: 5.61 ± 0.48 h
- total protein half-life in vivo [11]: 5.19 ± 0.2 h
- total protein half-life in vivo [2]: 4.71 ± 0.23 h
- total protein half-life in vivo [3]: 5.71 ± 1.4 h
- total protein half-life in vivo [4]: 4.94 ± 0.19 h
- total protein half-life in vivo [5]: 2.78 ± 0.4 h
- total protein half-life in vivo [6]: 6.27 ± 1.3 h
- total protein half-life in vivo [7]: 10.5 ± 0.78 h
- total protein half-life in vivo [8]: 4.8 ± 0.3 h
- total protein half-life in vivo [12]: 9.08 ± 0.9 h
- total protein half-life in vivo [9]: 5.77 ± 0.26 h
- total protein half-life in vivo [10]: 12.6 ± 0.46 h
